Data reported in article PMC12377726 (Proceedings of the National Academy of Sciences of the …, 2025).

Target: eOD-GT8 (engineered outer domain germline-targeting version 8), monomer (HIV-1 gp120 engineered outer domain, …)

Binder	binding result
G001_gp1_V10_VRC01c_2021-0096 (antibody, V domains shown) VH: not shown VL: EIVMTQSPATLSVSPGERATLSCRASQSVSSNLAWYQQKPGQAPRLLIYGASTRATGIPARFSGSGSGTEFTLTISSLQSEDLAVYYCQQYTAFGQGTKVEIK	binds
G001_gp1_V10_VRC01c_2021-0117 (antibody, V domains shown) VH: QVQLVQSGAEVKKPGASVKVSCKASGYTFTGYYMHWVRQAPGQGLEWMGWINPNSGGTNYAQKFQGWVTMTRDTSISTAYMEVSRLTSDDTAVYYCARGEDNWYSFNYWGQGTLVTVSS VL: EIVMTQSPATLSVSPGERATLSCRASQSVSSKLAWYQQKPGQAPRLLIYGTSTRATGIPARFSGSGSGTEFTLTISSLQSEDFAVYYCQLYETFGQGTKVEIK	binds
G001_gp1_V10_VRC01c_2021-0104 (antibody, V domains shown) VH: QVHLVQSGAEVKKPGASVKVSCKASGYSFTDYYIYWVRQAPGQGLEWMGWINPNSGGTNYAQKFQAWVTMTRDTSISTAYMELNRLTSDDTAVYYCARRTMPTTEFDSWGQGTLVTVSS VL: EIVLTQSPGTLSLSPGERVTLSCRASQSLSNNYLAWYQQKPGQAPRLLIYGVSNRATGIPDRFRGSGSGTDFTLTISRLEPEDCAVYYCQQYVSFGQGTKLEIK	binds
G001_gp1_V10_VRC01c_2021-0092 (antibody, V domains shown) VH: QVQLVQSGAEVKKPGASVKVSCKASGYTFTGYYMHWVRQAPGHGLEWMGWINPNSGGSNYAQRFQGWVTMTRDTSISTAYMELTRLRSDDTAVYYCARELLAAAGTVFDYWGQGTLVTVSS VL: EIVLTQSPGTLSLSPGERATLSCRASQSVSSSYLAWYQQKPGQAPRLLIYGASSRATGIPDRFSGSGSGTDFTLTISRLEPEDFAVYYCQQYETFGQGTKVEIN	binds
G001_gp1_V10_VRC01c_2021-0110 (antibody, V domains shown) VH: QVQLVQSGAEVKKPGASVRVSCKASGYTFTGYYMHWVRQAPGQGLEWMGWTNPNSGGTNYAQKFQGWVTMTRDTSISTAYMELSRLRSDDTAVYYCARGEAYSTRYFDLWGRGTLVTVSS VL: EIVLTQSPGTLSLSPGERATLSCRASQSVSSSYLAWYQQKPGQAPRLLIYDTSSRATGIPDRFSGSGSGTDFTLTISRLEPEDFAVYYCQQYETFGQGTKVEIK	binds
G001_gp1_V10_VRC01c_2021-0106 (antibody, V domains shown) VH: QVQLVQSGAEVKKPGASVKVSCKASGYTFTDYYIHWVRQAPGQGLEWMGWLNPNSGGTNYAQKFQDWVTMTRDTSINTAYMELSRLRSDDTAVYYCASSLSGYGSFSFDYWGQGTLVTVSS VL: EIVLTQSPGTLSLSPGERATLSCRASQSGSSRSLAWYQQKPGQAPRLLIYGASSRATGIPDRFSGSGSGTDFTLTINRLEPEDSAVYYCQQYDSFGQGTKLEIK	binds
G001_gp1_V10_VRC01c_2021-0097 (antibody, V domains shown) VH: QVQLVQSGAEVKKPGASVKVSCKASGHTFTGYYMHWVRQAPGQGLEWMGWINSNSGGTNYAQKFQGWVTMTRDTSINTVYMELNRLTSDDTAVYYCAGGGRSTYYSWWFDPWGQGTLVTVSS VL: EIVLTQSPGTLSLSPGERATLSCRASQSVSSSYLAWYQQKPGQAPRLLIYGASSRATGIPDRFSGSGSGTDFTLTISRLEPEDLAVYYCQQWETFGQGTKVEIK	binds
G001_gp1_V10_VRC01c_2021-0108 (antibody, V domains shown) VH: QVQLVQSGAEVKKPGASVKISCKASGYTFSGYYMHWVRQAPGQGLEWMGWINPNSGGTNYAQKFQDWVTMTRDTSISTVYMELSRLRSDDTAVYYCARDWCSGDTCYSGPTFDYWGQGTLVTVSS VL: ESVLTQSPGTLSLSPGERATLSCRASQSVSSNYLAWYQQKPGQAPRLLIYGASSRATGIPDRFSGSGSGTDFTLTISRLEPEDFAVYYCQQYETFGQGTKVEIK	binds
G001_gp1_V10_VRC01c_2021-0098 (antibody, V domains shown) VH: QVQLVQSGAEVKKPGASVKVSCKASGNTFSGYYMHWVRQAPGQGLEWMGWINPNSGGTNYAQKFQGWVTMTRDTSISTAYMELSRLRSDDTAVYYCARGGRSAYYSWWFDPWGQGTLVTVSS VL: EIVLTQSPGTLSLSPGERATLSCRASQSVSSSYLAWYQQKPGQAPRLLIYGAFSRATGIPDRFSGSGSGTDFTLTISRLEPEDFAVYYCQQWETFGQGTKVEIK	binds
G001_gp1_V10_VRC01c_2021-0115 (antibody, V domains shown) VH: QVQLVQSGAEVKKPGASVKVSCNASGYTFTGYYMHWVRQAPGQGLEWMGWINPNSGGTNFAQKFQGWVTMTRDTSISTAYMELSRLRSDDTAVYYCARSIVGATIFVYWGQGTLVTVSS VL: EIVLTQSPGTLSLSPGERATLSCRASQSLSSSYLAWYQQKPGQAPRLLIYGASSRATGIPDRFSGSGSGTDFTLTISRLEPEDFAVYYCQQYGAFGPGTKVDIK	binds
G001_gp1_V10_VRC01c_2021-0112 (antibody, V domains shown) VH: not shown VL: EIVLTQSPGTLSLSPGERATLSCWASQSVNSRYVAWYQQKPGQAPRLLIYGASSRATGIPDRFSGSGSGTDFTLTISRLEPEDFAVYYCQQYETFGQGTRLEIK	binds
G001_gp1_V10_VRC01c_2021-0101 (antibody, V domains shown) VH: QVHLVQSGAEVKKPGASVKVSCKASGYTFTGYSMHWVRQAPGQGLEWMGWINPNSGGTNYAQKFQGRVTMTRDTSINTGYMELSRLRSDDTAVYYCARPHSNWYFDLWGRGTLVTVSS VL: EIVLTQSPGTLSLSPGERATLSCRASQSVSSNYLAWYQQKPGQAPRLLIYGASSRATGIPDRFSGSGSGTDFTLTISRLEPEDFAVYYCQQYETFGQGTKVEIK	binds
G001_gp1_V10_VRC01c_2021-0119 (antibody, V domains shown) VH: QVQLVQSGAEVKRPGASVMVSCKASGYTFTNYYMHWVRQAPGQGLEWMGWINPSSGGTNYAQKFQDWVTMTRDTSISTVYMELNRLRFDDTAVYFCARAQSSGWFLDFWGQGTLVTVSS VL: DIQMTQSPSSLSASVGDRVTITCQASQGFTKYLNWYQQKLGKAPKLLIYDASNLETGVPSRFSGSASGTDFTFTISSLQPEDIATYYCQQYDLFGGGTKVEIR	binds
G001_gp1_V10_VRC01c_2021-0093 (antibody, V domains shown) VH: QVQLVQSGAEVHNPGASVKVSCKASGYTFSDHYIHWVRQAPGQGLEWMGWINPNSGGTNYAQKFQGWVSMTRDTSITTAYMELSRLRSADTAVYYCAIPGICPGGNCYSYYFDSWGQGTLVSVSS VL: EIVLTQSPGTLSVSPGERATLSCRSSQSVSSLAWYQLKPGQAPRLLIYGAYNRAIGIPDRFSGSGSGTDFTLTISRLEPEDLAVYYCQQYEFFGQGTKLEIK	binds
G001_gp1_V10_VRC01c_2021-0116 (antibody, V domains shown) VH: QVQLVQSGAEVKKPGASVKVSCKASGYTFTDYYIHWVRQAPGQGLEWMGWINPNSGGTNYAQKFQGRVTMTRDTSITTAYMELSRLRSDDTAVYYCARICSGGSCYRTTSTFDYWGQGTLVTVSS VL: not shown	binds
G001_gp1_V10_VRC01c_2021-0099 (antibody, V domains shown) VH: QVQLVQSGAEVKKPGASVKVSCKASGNTFTDYYMYWVRQAPGQGLEWMGWINPNSGGTNYAQKFQGRVTMTRDTSISTAYMELSRLRSDDTAVYYCAGRHYDDSSGYKAFQHWGQGTLVTVSS VL: DIQMTQSPSTLSASVGDRVTITCRASQSFSSWLAWYQQKPGKAPKLLIYKASSLESGVPSRFSGSGSGTEFTLTISSLQPDDVATYYCQQYETFGQGTKVEIK	binds
G001_gp1_V10_VRC01c_2021-0105 (antibody, V domains shown) VH: QVQLVQSGAEVKKPGASVKVSCKASGYTFTGYYIHWVRQAPGQGLEWMGWINPNSGGTNYARQFEGWVTMTRDTSISTAYMELRRLRSDDTAMYYCATEDAVVAGTTFDYWGQGTLVTVSS VL: DIQMTQSPSTLSASVGDRVTITCRASQSMSSWLAWYQQKPGKAPKLLIYKASSLQSGVPSRFSGSGSGTEFTLTISSLQPDDFATYYCQQYNSFGGGTKVEIK	binds
G001_gp1_V10_VRC01c_2021-0111 (antibody, V domains shown) VH: not shown VL: DIQMTQSPSTLSASVGDRVTITCRASQSISSWLAWYQQKPGKAPKLLIYKASSLESGVPSRFSGSGSGTEFTLTISSLQPDDFATYYCQQYTTFGGGTKVEIK	binds
G001_gp1_V10_VRC01c_2021-0094 (antibody, V domains shown) VH: QVQLVQSGAEVKKPGASVKVSCKASGYTFTGYYMHWVRQAPGQGLEWMGWINPNSGGTNYAEKFQGWVTMTRDTSISTAYMELRRLKSDDTAVYYCATSLGGNPGRIWDMDVWGQGTTVTVSS VL: QSALTQPASVSGSPGQSITISCTGTSSDVGGYNFVSWYQQHPGKAPKLIIYDVTNRPSGVSNRFSGSKSGNTASLTISGLQAEDEANYYCSSYEVFGTGTKVTVL	binds
G001_gp1_V10_VRC01c_2021-0103 (antibody, V domains shown) VH: not shown VL: QSALTQPRSVSGSPGQSVTISCTGTSSDVGGYNYVSWYQQHPGKAPKLMIYDVSKRPSGVPDRFSGSKSGNTASLTISGLQAEDEADYYCCSYEVFGGGTKLTVL	binds
G001_gp1_V10_VRC01c_2021-0114 (antibody, V domains shown) VH: QVQLVQSGAEVKKPGASVKVSCKASGYTFTGYNIHWVRQDPGQGLEWMGWINPNSGGTNYAQKFQDWVTMTRDMSISTAYMELSRLRSDDTAIYYCAAVAGRRGRWAFDIWGQGTMVTVSS VL: not shown	binds
G001_gp1_V10_VRC01c_2021-0107 (antibody, V domains shown) VH: not shown VL: DIQMTQSPSSLSASVGDRVTITCRASQSISSYLNWYQQKPGKAPKLLIYAASSLQSGVPSRFSGSGSGTDFTLTISSLQPEDFATYYCQHQGTFGQGTKVEIK	binds
G001_gp1_V10_VRC01c_2021-0095 (antibody, V domains shown) VH: not shown VL: DIQMTQSPSSLSASVGDRVTITCQASQDISNYLNWYQQKPGKAPQLLIYDASNLETGVPSRFSGRGSGTDFTFTISSLQPEDIATYYCQQYDTFGQGTRLEIK	binds
G001_gp1_V10_VRC01c_2021-0100 (antibody, V domains shown) VH: PVQLVQSGAEVKKPGASVKVSCKASGYTFTGYYIHWVRQAPGQGLEWMGWINPNSGGTNYAQKFQGRVTMTRDTSVSTAYMELSRLRSDDTAVYYCARRLAAASGVFGVRFDPWGQGTLVTVSS VL: DIQMTQSPSSLSASVGDRITITCQASQDISNYLNWYQQRPGKAPKLLIYDASNLETGVPSRFSGSGSGTDFTFTISSLQPEDIATYYCQQYDFFGPGTKVDIK	binds
G001_gp1_V10_VRC01c_2021-0109 (antibody, V domains shown) VH: QVQLVQSGAEVKKPGASVKVSCKASGYSFTGYYMHWVRQAPGQGLEWMGWMNPNSGGTNYAQKFQGWVTMTRDTSISTAYMELSRLRSDDSAVYYCARARSGYSSGWYWAYWGQGTLVTVSS VL: DIQMTQSPSSLSASVGDRVTITCQASQDISNYLNWYQQKPGKAPKLLIYDASNLETGVPSRFSGSGSGTDFTFTISSLQPEDIATYYCQQYEFFGGGTKVEIK	binds
